B1: SHI1 fused with the N-terminal portion of the luciferase [Arabidopsis thaliana] / FRY2/CPL1 fused with the C-terminal part of the luciferase [Arabidopsis thaliana] (parent complex)
chain 1: MERSRSKRNYHYDQDYDGDSMPRSKPRYNNNYHFGGGGGGNNRYRGGGGGGGGNGRPSKSHPETMATTTYRILCHDAKAGGVIGKSGTIIKSIRQHTGAWINVHELVPGDAERIIEISDNRRRDPDGRMPSFSPAQEALFSVHDRILESEAQFGYGGPPPEEEEDYGGVRPGGGRVVTRLVVSRMHVGCLLGKGGKIIEQMRIETKTHIRILPRESNLPRCVSLSEEIVQIVGELNAVKNALAIVSSRLRESQHRDRSNFQGRSHSPERSFAAAGDDYMPQLRRQSSDRFPRGNFRNNNFSSRQSNYAEEAPAVPVGENVYSEELVFQILCPADKIVRVVGESQGIIDLLQNEIGVDVRVSDPVAGSDEQIITISSEEAPDDPFFPAQEALLHIQTQIIDLIPDKDNLITTRLLVPSRDSICLEGKAGSVSEISRLTGTSVQILAREEIPRCASINDVVIQITGEIRAAREALVELTLLLRSHMFKELSQKETPPASTSTTGPLEGVAGVMEVASSNNTIQSREGPTSSNLNLQQVSTILPQFKEGFGSVAKAGESEHREEVPVTTSRMAVPLVTRSTLEVVLPEAVVPKLVTKSRNKLAQISEWSGASVTIVEDRPEETQNIIRISGTPEQAERAQSLLQGFILSIQEDGP
chain 2: MYSNNRVEVFHGDGRLGELEIYPSRELNQQQDDVMKQRKKKQREVMELAKMGIRISHFSQSGERCPPLAILTTISSCGLCFKLEASPSPAQESLSLFYSSCLRDNKTAVMLLGGEELHLVAMYSENIKNDRPCFWAFSVAPGIYDSCLVMLNLRCLGIVFDLDETLVVANTMRSFEDKIDGFQRRINNEMDPQRLAVIVAEMKRYQDDKNLLKQYIESDQVVENGEVIKVQSEIVPALSDNHQPLVRPLIRLQEKNIILTRINPMIRDTSVLVRMRPSWEELRSYLTAKGRKRFEVYVCTMAERDYALEMWRLLDPEGNLINTNDLLARIVCVKSGFKKSLFNVFLDGTCHPKMALVIDDRLKVWDEKDQPRVHVVPAFAPYYSPQAEAAATPVLCVARNVACGVRGGFFRDFDDSLLPRIAEISYENDAEDIPSPPDVSHYLVSEDDTSGLNGNKDPLSFDGMADTEVERRLKEAISASSAVLPAANIDPRIAAPVQFPMASASSVSVPVPVQVVQQAIQPSAMAFPSIPFQQPQQPTSIAKHLVPSEPSLQSSPAREEGEVPESELDPDTRRRLLILQHGQDTRDPAPSEPSFPQRPPVQAPPSHVQSRNGWFPVEEEMDPAQIRRAVSKEYPLDSEMIHMEKHRPRHPSFFSKIDNSTQSDRMLHENRRPPKESLRRDEQLRSNNNLPDSHPFYGEDASWNQSSSRNSDLDFLPERSVSATETSADVLHGIAIKCGAKVEYKPSLVSSTDLRFSVEAWLSNQKIGEGIGKSRREALHKAAEASIQNLADGYMRANGDPGPSHRDATPFTNENISMGNANALNNQPFARDETALPVSSRPTDPRLEGSMRHTGSITALRELCASEGLEMAFQSQRQLPSDMVHRDELHAQVEIDGRVVGEGVGSTWDEARMQAAERALSSVRSMLGQPLHKRQGSPRSFGGMSNKRLKPDFQRSLQRMPSSGRYS

The variants in this test derive from B1. Nature of the test: split-luciferase complementation assay; co-expressed in Arabidopsis protoplasts; means ± SE (n = 3); parent: 160; read off a plot.
Regarding chain 1 E389K, the response is around 110 RLU.

Source of the values: publication PMC3708844 (2013).
